Residue numbers refer to the chain shown, from its start. In names and notes the source's numbering stands. Several values for one entry are separate records, joined by “and”; a condition that tells them apart may be missing. Identical values can stand only once. One block for each molecule: values may come before it.
Key:
[1] = not stated; oligomeric form and share of trimer/hexamer/HMW in the purified batch as listed in Table 1; the table does not say whether from analytical SEC (Figure 1A) or AF4-MALS
[2] = biological target: Murine globular adiponectin (mgAd) (murine); assay: as above
[3] = biological target: T1, C39S version of full length murine adiponectin (C39S mAd) (murine), Q60994; assay: as above; conditions: remark: other sources report otherwise
T1 chain: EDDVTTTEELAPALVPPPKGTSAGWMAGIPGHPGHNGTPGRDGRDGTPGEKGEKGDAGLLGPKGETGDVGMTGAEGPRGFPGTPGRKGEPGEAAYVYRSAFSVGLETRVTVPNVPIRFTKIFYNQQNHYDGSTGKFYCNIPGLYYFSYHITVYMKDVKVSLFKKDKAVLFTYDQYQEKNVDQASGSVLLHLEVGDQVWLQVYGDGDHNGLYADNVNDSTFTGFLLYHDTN

[4] = biological target: the molecule itself; assay: as above
Q60994 = assay: as above
Q15848 = assay: as above
[5] = biological target: the molecule itself; assay: AF4-MALS; purified batch; 20 mM Tris-HCl pH 7.4, 100 mM NaCl, 1 mM CaCl2; self-association, size of the oligomer

Molecule: Murine globular adiponectin (mgAd)
% HMW [1]: 0%

% hexamer [2]: -0%
% trimer [2]: 100%
Molecule: Murine globular adiponectin (mgAd) (domain or fragment)

% hexamer [3]: -0%
% trimer [3]: 100%
stoichiometry N [3]: 3
B1: C39S version of full length murine adiponectin (C39S mAd), Q60994 18-247 (natural protein)
chain: T1 chain
modifications: here or on the partner: detected proline hydroxylations at 47, 50, 56, 65, 79; detected lysine hydroxylations at 68, 71, 80, 104; detected proline hydroxylations at 47, 50, 56, 65, 79; detected lysine hydroxylations at 68, 71, 80, 104

B2: Full length murine adiponectin (mAd) (natural protein, UniProt Q60994 18-247, looked up)
chain: T1 chain with S22C
modifications: detected proline hydroxylations at 65, 79; detected lysine hydroxylations at 36, 68, 71, 80, 104
notes: murine adiponectin; coding region amplified from a mouse spleen cDNA library; the original signal peptide was replaced by the human CD33 signal peptide and the protein was secreted; The forward primer begins with catcatcat (three His codons) followed by gcc gaa gat gac gtt (A E D D V); Batch is a mixture of trimer and hexamer
% hexamer [4]: 53%
% trimer [4]: 46%
stoichiometry N [4]: 3 and 6

B3: Full length murine adiponectin (mAd) (protein)
chain: T1 chain with S22C
% HMW (Q60994): 1%

B4: C39S version of full length murine adiponectin (C39S mAd) (protein)
chain: T1 chain
% HMW (Q60994): 0%

B5: Full length human adiponectin (hAd), high molecular weight form (protein)
chain: ETTTQGPGVLLPLPKGACTGWMAGIPGHPGHNGAPGRDGRDGTPGEKGEKGDPGLIGPKGDIGETGVPGAEGPRGFPGIQGRKGEPGEGAYVYRSAFSVGLETYVTIPNMPIRFTKIFYNQQNHYDGSTGKFHCNIPGLYYFAYHITVYMKDVKVSLFKKDKAMLFTYDQYQENNVDQASGSVLLHLEVGDQVWLQVYGEGERNGLYADNDNDSTFTGFLLYHDTN
% HMW (Q15848): 98%

B6: Full length human adiponectin (hAd), high molecular weight form (natural protein, UniProt Q15848 19-244, looked up)
chain: B5 chain
modifications: detected proline hydroxylations at 71, 76, 95; detected lysine hydroxylations at 33, 65, 68, 77, 101 (glycosylated hydroxylysyl)
notes: human adiponectin; coding region amplified from Human Adipocyte Marathon Ready cDNA; the original signal peptide was replaced by the human CD33 signal peptide and the protein was secreted; also called HMW hAd; HMW adiponectin; source: HMW form isolated; copies: 18
% hexamer [4]: 2%
% trimer [4]: 0%
stoichiometry N [5]: 18

B7: Mouse globular adiponectin with an amino terminal FlagTag (FLAG-mgAd) (domain or fragment, murine, UniProt Q60994 109-247, looked up)
chain: EAAYMYRSAFSVGLETRVTVPNVPIRFTKIFYNQQNHYDGSTGKFYCNIPGLYYFSYHITVYMKDVKVSLFKKDKAVLFTYDQYQEKNVDQASGSVLLHLEVGDQVWLQVYGDGDHNGLYADNVQDSTFTGFLLYHDTN
notes: N233Q to prevent N-glycosylation; the methods mention only N233Q; Total mass printed: 17054 Da; also called FLAG tagged mouse globular adiponectin; source: S. cerevisiae ME1719, supernatant, purified (Q Sepharose FF, Superdex 200)
% hexamer [4]: 15%
% trimer [4]: 85%
% HMW (Q60994): 0%

Source: article PMC3462199, “Recombinant Adiponectin Does Not Lower Plasma Glucose in Animal Models of Type 2 Diabetes” (PLoS ONE, 2012)
